Experimental findings from PMC8679000, “Biochemical Characterizations of Human TMPK Mutations Identified in Patients with Severe Microcephaly: Single Amino Acid Substitutions Impair Dimerization and Abolish Their Catalytic Activity” (ACS Omega, 2021) are described below.

This data set deals with the molecule itself. The experiment in a line: SEC; Superdex G200; 10 mM Tris/HCl pH 7.6, 100 mM NaCl, 5 mM MgCl2, 5 mM DTT; 200 ug protein injected, 0.4 mL/min; 0.4 mL fractions analysed by TMPK activity and Western blot; size markers BSA, ovalbumin, cytochrome C. A general note: Size exclusion chromatography separates by hydrodynamic size, large species first.

B1: wild-type human deoxythymidylate kinase (TMPK) (enzyme, UniProt P23919 1-212, looked up)
chain: MAARRGALIVLEGVDRAGKSTQSRKLVEALCAAGHRAELLRFPERSTEIGKLLSSYLQKKSDVEDHSVHLLFSANRWEQVPLIKEKLSQGVTLVVDRYAFSGVAFTGAKENFSLDWCKQPDVGLPKPDLVLFLQLQLADAAKRGAFGHERYENGAFQERALRCFHQLMKDTTLNWKMVDASKSIEAVHEDIRVLSEDAIRTATEKPLGELWK
notes: The pET-14b vector with N-terminal 6xHis tag is stated for the mutants only; the WT was 'run in parallel'; also called WT TMPK; WT; not shown: His6 (inferred from the mutants' construct)
Consider B1, for which the stoichiometry N (in general, a count of units in the complex or per binding partner) turned out to be 2.
